The supplement of paper PMC10724198
± gives the standard deviation of the averaged measurements.

Tested on: Saccharomyces cerevisiae
Assay: protein stability index of tFT-peptide fusion (C-terminal peptide) (PSI (0-1 scale)); higher = more stable (slower turnover)
Details: genetic background: wild type; temperature: 30 C
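Also: PSI is a weighted mean of sequencing reads over stability bins, variants kept only with over 10 reads, mCherry proximal and sfGFP distal, peptide attached via GGGS linker.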

In order of rising protein stability index:
1. VQCSLWYARLIL  0.513 ± 0.033
2. VTLGQNGVSLRS  0.596 ± 0.071
3. FYWFPYYFSHLH  0.602 ± 0.048
4. FHGSIVQLTFRA  0.603 ± 0.047
5. PLPPPNPPLPVF  0.615 ± 0.036
6. LLCFRLFPALTP  0.6228 ± 0.0057
7. ALPPGSRPLIPS  0.628 ± 0.024
8. DCPHGDSPRVVS  0.628 ± 0.046
9. EPIKEKKKMGSR  0.63 ± 0.056
10. SRVEVEVKIGFQ  0.6331 ± 0.0061
11. LEGNRGYKRNGK  0.637 ± 0.084
12. DGSRSFSYSTAG  0.642 ± 0.1
13. LVLLDQISVPLI  0.6474 ± 0.00096
14. NKHDGRKWARYK  0.6494 ± 0.00069
15. IKKKKKKKQRKQ  0.65 ± 0.069
16. QPLSFAYMPPLS  0.653 ± 0.033
17. LRGLRALRGDLT  0.654 ± 0.05
18. ELVGLAHVLELA  0.655 ± 0.084
19. VWFSFGCGFFGR  0.659 ± 0.061
20. TPTSLPGPRVLS  0.6596 ± 0.0054
21. PPPYHLTPPPPF  0.662 ± 0.052
22. GFPGSYSKVLCL  0.6619 ± 0.0032
23. RSSEVQADRMCQ  0.668 ± 0.025
24. FLPPPLAAPFLF  0.669 ± 0.059
25. ACSSSLPPSSPP  0.671 ± 0.0078
26. GLMSVRYSGTGV  0.6743 ± 0.006
27. RKTHTRTQKRKL  0.675 ± 0.01
28. IKKTKNKETKKT  0.676 ± 0.045
29. HIWQEADGMDTE  0.679 ± 0.022
30. GGGLGAGWGVWG  0.68 ± 0.035
31. SGFKRWSDVGDY  0.6815 ± 0.0057
32. VHHHQTTCHRHR  0.682 ± 0.018
33. ERKNTTSEFTNL  0.684 ± 0.0079
34. GRGGPSGAKAHR  0.684 ± 0.026
35. TRSSHSHLETFV  0.684 ± 0.03
36. SFFSSSRVCLGF  0.685 ± 0.11
37. GRDGQTLYLVLL  0.686 ± 0.03
38. DKGTGYIVKRIT  0.6872 ± 0.0044
39. KKKEGRMKQIYE  0.688 ± 0.0088
40. LPAPSPSPHPPA  0.689 ± 0.026
41. IKACGLRSFIKS  0.69 ± 0.059
42. PPSSPPPASHRP  0.691 ± 0.046
43. IKKKKKKESRSS  0.693 ± 0.065
44. LSAVRFGRVWGG  0.6959 ± 0.0043
45. QLPALPPLHSSP  0.6982 ± 0.0022
46. YSCDEDPVTVRG  0.699 ± 0.036
47. APPPPTPPPPPA  0.7 ± 0.019
48. AKKTKSRANSDL  0.701 ± 0.085
49. RPVPPPLPSPPP  0.702 ± 0.016
50. PNPLCQPPTGRP  0.705 ± 0.14
51. PAGFQTPPLVHD  0.708 ± 0.091
52. VLHAGACARANR  0.708 ± 0.043
53. PPPPPPALPEYQ  0.708 ± 0.01
54. AALRLVEDKSTW  0.71 ± 0.059
55. LVEEGKKLTSKF  0.711 ± 0.078
56. VLNSTSFLNKNL  0.712 ± 0.059
57. LFPHPGPHHPSV  0.716 ± 0.016
58. GLAAGGAVMPPL  0.7188 ± 0.0064
59. YTPVKDNDVKVY  0.722 ± 0.077
60. AHFQDSTSPATI  0.722 ± 0.017
61. GPPPPSPRPTRR  0.723 ± 0.031
62. EKLADTTKRRRV  0.724 ± 0.026
63. ALRGRTTPPSHT  0.726 ± 0.086
64. LGWDGSRRRPGL  0.727 ± 0.14
65. PWTSSTTSRFPS  0.727 ± 0.033
66. LVSLVGVGWGCG  0.729 ± 0.023
67. RPSLPPSPLLRP  0.729 ± 0.0049
68. GVGLGGFGVWGV  0.73 ± 0.074
69. SCLGSGVSWGVW  0.731 ± 0.0053
70. VSGGRLVGWGGW  0.731 ± 0.12
71. PLPPPLDLPPRS  0.735 ± 0.12
72. CRPFGVSCHIRV  0.739 ± 0.17
73. RQSREGKANRRW  0.742 ± 0.049
74. PTLPTLFPSSSL  0.7448 ± 0.0045
75. GCVSAVSKCFFL  0.751 ± 0.1
76. PPSLLPAPQLPP  0.757 ± 0.066
77. KVFTQGPGRMLE  0.758 ± 0.021
78. SRTPLASTPPHR  0.761 ± 0.11
79. LSPFGTLLNAPP  0.782 ± 0.075
80. QGLSFVSVSPRP  0.795 ± 0.029
81. MGGRDNLVQKEW  0.804 ± 0.091
